Columns and labels:
recombinant cyno TfR1 = target: T1, recombinant cyno TfR1 (cynomolgus monkey (Macaca fascicularis), UniProt Q5RDH6 87-760 (Pongo abelii entry), limits assumed); assay: ELISA, conjugate against unconjugated antibody
T1 construct: Recombinant cynoTfR1 coated on ELISA plates; also called cTfR1; cynomolgus monkey TfR1
T1 chain: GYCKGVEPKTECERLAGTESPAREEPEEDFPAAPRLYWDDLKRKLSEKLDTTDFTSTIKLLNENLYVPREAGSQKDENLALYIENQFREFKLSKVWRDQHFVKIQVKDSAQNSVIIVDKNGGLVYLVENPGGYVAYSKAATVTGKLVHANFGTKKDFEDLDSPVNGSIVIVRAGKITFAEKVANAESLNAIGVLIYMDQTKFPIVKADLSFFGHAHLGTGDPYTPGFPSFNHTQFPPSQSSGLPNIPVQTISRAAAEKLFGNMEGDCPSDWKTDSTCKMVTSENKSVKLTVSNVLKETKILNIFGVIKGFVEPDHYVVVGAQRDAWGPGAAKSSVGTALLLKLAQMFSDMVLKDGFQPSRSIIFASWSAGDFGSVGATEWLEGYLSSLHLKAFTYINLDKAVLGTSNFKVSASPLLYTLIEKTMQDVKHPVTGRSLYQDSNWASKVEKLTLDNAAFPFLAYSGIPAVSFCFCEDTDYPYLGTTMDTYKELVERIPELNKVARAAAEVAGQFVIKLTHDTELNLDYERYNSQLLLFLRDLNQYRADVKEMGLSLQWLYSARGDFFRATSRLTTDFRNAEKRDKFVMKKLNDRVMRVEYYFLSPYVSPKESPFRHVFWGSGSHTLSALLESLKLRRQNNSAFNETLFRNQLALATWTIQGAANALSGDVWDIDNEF

recombinant human TfR1 = target: T2, recombinant human TfR1 (human, UniProt P02786 89-760); assay: ELISA, conjugate against unconjugated antibody
T2 construct: Recombinant huTfR1 coated on ELISA plates or used in the immunoprecipitation; also called huTfR1; hTfR1

B1: anti-TfR (VH of SEQ ID NO: 17 and VL of SEQ ID NO: 18) conjugated to a DMPK-targeting oligonucleotide (control DMPK-ASO) (antibody, V domains shown)
VH: QVQLVQSGAEVKKPGESLKISCKGSGYSFTSYWIGWVRQMPGKGLEWMGIIYPGDSDTRYSPSFQGQVTISADKSISTAYLQWSSLKASDTAMYYCARFPYDSSGYYSFDYWGQGTLVTVSS
VL: not shown
modifications: DMPK-targeting antisense oligonucleotide linked through a cathepsin-cleavable Val-Cit linker to the ε-amine of lysine of the antibody (site and chain not stated)
notes: In the uptake assay several different DMPK-targeting oligonucleotides were used and the conjugates were also labeled with Cypher5e; also called anti-TfR in conjugates with a DMPK targeting oligo; oligonucleotide-conjugated anti-TfR
Recombinant cyno TfR1
  fold increase of binding upon conjugation (against unconjugated anti-TfR): 3 to 6 fold
Recombinant human TfR1
  fold increase of binding upon conjugation (against unconjugated anti-TfR): 3 to 6 fold

From patent publication US20230103793A1 (DYNE THERAPEUTICS, published 2023)
